Biological target: monomeric synthetic human Aβ1-42 peptide (human)
Experiment: cell-based or functional assay

## recombinant NIa (nuclear inclusion a) protease of Turnip mosaic virus (TuMV), purified from E. coli (from UniProt P89509 2117-2359) (enzyme)
  reduction of monomeric Aβ level, densitometry of Western blot (6E10), 3 hrs at 25 °C, NIa pre-incubated with the cysteine protease inhibitor NEM: 33%

From US20130108613A1
